Results: US6890716B1, “Recombinant cell line and screening method for identifying agents which regulate apoptosis and tumor suppression” (Howard Hughes Medical Institute, priority 1998, dated 2005)

Columns and labels:
[1] = target: temperature sensitive p53 (val135) mutant expressed in p53A cells (UniProt P02340); assay: cell-based or functional assay
mdm2 in p53A cells = assay: Up-regulation of endogenous Mdm2 by indirect immunofluorescence; format: cell-based, rat; conditions: indirect immunofluorescence (FIG. 7)
Procedure: Cells were fixed in cold methanol prior to incubation with primary antibodies. Subsequent to several washes in PBS, cells were incubated with rhodamine-conjugated goat anti-mouse antibody or fluorescein-conjugated goat anti-rabbit antibody. Cells were then washed, mounted and analyzed by fluorescence microscopy using a Nikon FXA epifluorescence microscope.
The indicated amount of plasmid DNA was transfected by electroporation. After transfection, cells were incubated at 37.5° C. for 24 hours to recover, and were then shifted to 32° C. for 24 hours before analysis for viability by trypan blue staining and apoptotic morphology. […]
We next attempted to rescue p53A cells from apoptosis at the permissive temperature by ectopically expressing p300. Vector alone, wild-type p300 and a functional but truncated form of p300 with a deletion of E1A binding domain (Arany et al. 1994), were transiently transfected in p53A cells. p53-dependent apoptosis was examined at the permissive temperature 48 hours post-transfection. p53A cells transiently expressed the exogenous wild-type p300 and the E1A binding mutant form of p300, neither of which were detected in mock transfected cells. The up-regulation of mdm2 in p300 transfected cells was not detected by Western blot analysis above endogenous levels (FIG. 6) because the transfection efficiency was low in transient assays. […]

p53A cells = assay: Apoptotic morphology of transfected cells by indirect immunofluorescence at the permissive temperature; format: cell-based, rat; conditions: 24 μg plasmid DNA, permissive temperature (FIG. 9)
Procedure: Apoptotic morphology was assessed by scoring for cells that are positive by fluorescence microscopy and are rounded and non adherent.
In addition, we determined the percentage of cells with apoptotic morphology that were ectopically expressing wild-type p300 ectopically or the E1A-binding mutant of p300 following transient transfection with 24 μg of plasmid DNA. Apoptotic morphology was determined by counting cells that were rounded in shape and detaching from the dish. The percentage of cells with apoptotic morphology transiently expressing a control protein, a fragment of the lamin A protein (Rao et al. 1996), compared to p300 and mutant p300 transfected p53A cells at the permissive temperature was determined by indirect immunofluorescence.

[2] = tested on: GAL-4 luciferase reporter construct in HeLa cells; assay: Transcriptional reporter assay (GAL-4 luciferase reporter); format: cell-based
Procedure: Transcriptional reporter assays were performed as described previously (Catron, et al., 1995). HeLa cells were plated onto 60 mm tissue culture dishes and grown to 50-75% confluency. The cells were then transfected with 2.5 μg of a GAL-4 luciferase reporter construct (kindly provided by Dr. C. Abate-Shen, Center for Advanced Biotechnology and Medicine, Piscataway, N.J.) along with 2.5 μg of both a pm1 vector (BtfS, BtfS-N552 or BtfS-C210) and a bcl-2 family gene (pCMV-E1B 19K, pcDNA3-Bcl-2, or pcDNA3-Flag-Bcl-xL). DNA concentrations were kept constant using appropriate empty vectors, either pm1 or pcDNA3. The cells were transfected using SuperFect (Qiagen, Valencia, Calif.) according to the manufacturer's specifications and harvested 24 hours post-transfection. Expression of mutant and wild-type BtfS proteins were verified by immunofluorescence using an antibody against the GAL-4 DNA-binding domain (Clontech, San Fransisco, Calif.). Luciferase activity was determined using the Luciferase Assay System (Promega Corp., Madison, Wis.) measured in a scintillation counter, and then normalized for protein concentrations measured by a Bradford assay. […]
To address these issues, BtfS was cloned into a mammalian expression vector (pm1) containing the GAL-4 DNA binding domain. Transcriptional activity was monitored using a reporter construct containing GAL-4 promoter sites. […]

| percentage of apoptotic cells (morphology, indirect immunofluorescence) among p53A cells expressing the protein [1] | Molecule | transfected cells showing up-regulation of Mdm2 (mdm2 in p53A cells) | percentage of expressing cells with apoptotic morphology (p53A cells) | further results |
| --- | --- | --- | --- | --- |
| 10% | wild-type mdm2 (pCOC-X2 / pCMVβ-X2) (from UniProt P23804 1-489) | – | – | – |
| – | wild-type p300: Transcriptional coactivator p300, HA-tagged, expressed from pCMVβp300 | 90% | 4% | – |
| 30% | mutant mdm2 with deletion of the N-terminal p53-binding domain (pCOC-ΔXM / pCMVβ-ΔXM) (from UniProt P23804 102-489) | – | – | – |
| – | mutant p300: Functional but truncated p300 with deletion of the E1A binding domain (pCMVβp300Δ30) | 90% | 8% | – |
| – | ΔC210: Deletion mutant of BtfS, amino acids 1-210, cloned into pm1 (protein, UniProt Q9NYF8 1-210, looked up, fragment, BtfS isoform, Deletion mutant of BtfS, amino acids 1-210, cloned into pm1) MGRSNSRSHSSRSKSRSQSSSRSRSRSHSRKKRYSSRSRSRTYSRSRSRDRMYSRDYRRDYRNNRGMRRPYGYRGRGRGYYQGGGGRYHRGGYRPVWNRRHSRSPRRGRSRSRSPKRRSVSSQRSRSRSRRSYRSSRSPRSSSSRSSSPYSKSPVSKRRGSQEKQTKKAEGEPQEESPLKSKSQEEPKDTFEHDPSESIDEFNKSSATSG | – | – | ability to repress transcription (in words) ([2]; pm1 GAL-4 DNA-binding domain fusions (FIG. 27)): sufficient for repression and nearly as potent as full-length BtfS |
| – | pm1-BtfS: BtfS fused to the GAL-4 DNA binding domain in mammalian expression vector pm1 (protein) MKLLSSIEQACDICRLKKLKCSKEKPKCAKCLKNNWECRYSPKTKRSPLTRAHLTEVESRLERLEQLFLLIFPREDLDMILKMDSLQDIKALLTGLFVQDNVNKDAVTDRLASVETDMPLTLRQHRISATSSSEESSNKGQRQLTVSMGRANSRSHSSRSKSRSQSSSRSRSRSHSRKKRYRSRSRTYSRSRSRDRMYSRDYRRDYRNNRGMRRPYGYRGRGRGYYQGGGGRYHRGGYRPVWNRRHSRSPRRGRSRSRSPKRRSVSSRSRSRSRRSYRSSRSPRSSSSRSSSPYSKSPVSKRRGSQEKQTKKAEGEPQEESPLKSKSQEEPKDTFEHDPSESIDEFNKSSATSGDIWPGLSAYDNSPRSPHSPSPIATPPSQSSSCSDAPMLSTVHSAKNTPSQHSHSIQHSPERSGSGSVGNGSSRYSPSQNSPIHHIPSRRSPAKTIAPQNAPRDESRGRSSFYPDGGDQETAKTGKFLKRFTDEESRVFLLDRGNTRDKEASKEKGSEKGRAEGEWEDQEALDYFSDKESGKQKFNDSEGDDTEETEDYRQFRKSVLADQGKSFATASHRNTEEEGLKYKSKVSLKGNRESDGFREEKNYKLKETGYVVERPSTTKDKHKEEDKNSERITVKKETQSPEQVKSEKLKDLFDYSPPLHKNLDAREKSTFREESPLRIKMIASDSHRPEVKLKMAPVPLDDSNRPASLTKDRLLASTLVHSVKKEQEFRSIFDHIKLPQASKSTSESFIQHIVSLVHHVKEQYFKSAAMTLNERFTSYQKATEEHSTRQKSPEIHRRIDISPSTLRKHTRLAGEERVFKEENQKGDKKLRCDSADLRHDIDRRRKERSKERGDSKGSRESSGSRKQEKTPKDYKEYKSYKDDSKHKREQDHSRSSSSSASPSSPSSREEKESKKEREEEFKTHHEMKEYSGFAGVSRPRGTFFRIRGRGRARGVFAGTNTGPNNSNTTFQKRPKEEEWDPEYTPKSKKYFLHDDRDDGVDYWAKRGRGRGTFQRGRGRFNFKKSGSSPKWTHDKYQGDGIVEDEEETMENNEEKKDRRKEEKE | – | – | decrease in transcription compared to empty pm1 vector control ([2]; 24 hours post-transfection (FIG. 27)): ~10 fold |
